Patent US20060240053

Substance	autocleavage in acetate buffer pH 4.5, SDS-PAGE over time
GST-SASPase C27 mutant A/D (aspartic acid No. 212 substituted to alanine)	The mutated forms (A/D) and (E/D), for their part, do not autoactivate
GST-SASPase C27 mutant E/D (aspartic acid No. 212 substituted to glutamic acid)	The mutated forms (A/D) and (E/D), for their part, do not autoactivate
